Experimental data taken from PMC3234860 (The Journal of Biological Chemistry, 2011).

Columns and labels:
Sfr1 = biological target: T1, Sfr1 (S. pombe, UniProt Q9USV1 1-299); assay: AUC
T1 sequence: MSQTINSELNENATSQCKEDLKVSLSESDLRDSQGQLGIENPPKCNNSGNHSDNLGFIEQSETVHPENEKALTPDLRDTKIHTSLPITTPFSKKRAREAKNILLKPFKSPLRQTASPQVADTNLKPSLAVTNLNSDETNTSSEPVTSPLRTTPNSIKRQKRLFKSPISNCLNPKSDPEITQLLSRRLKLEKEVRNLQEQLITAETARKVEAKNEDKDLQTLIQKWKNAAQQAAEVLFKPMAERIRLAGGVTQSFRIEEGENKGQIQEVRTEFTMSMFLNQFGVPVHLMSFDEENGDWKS

native MS = biological target: the molecule itself; assay: native MS

stoichiometry N (Sfr1): 1 Swi5:Sfr1
B1: Swi5 (natural protein)
chain: MEKSQLESRVHLLEQQKEQLESSLQDALAKLKNRDAKQTVQKHIDLLHTYNEIRDIALGMIGKVAEHEKCTSVELFDRFGVNGSE
stoichiometry N (native MS): 2
